Experimental data: PMC10240212 (EMBO Reports, 2023)

Experiments:
mass photometry = molecular target: the molecule itself; assay: mass photometry
SEC = molecular target: the molecule itself; assay: SEC

B1: Teneurin‐m superfold (Ten‐m^SF), residues 779–2731 (domain or fragment)
chain: LNCGDSKDNDKDGLVDCEDPECCASHVCKTSQLCVSAPKPIDVLLRKQPPAITASFFERMKFLIDESSLQNYAKLETFNESRSAVIRGRVVTSLGMGLVGVRVSTTTLLEGFTLTRDDGWFDLMVNGGGAVTLQFGRAPFRPQSRIVQVPWNEVVIIDLVVMSMSEEKGLAVTTTHTCFAHDYDLMKPVVLASWKHGFQGACPDRSAILAESQVIQESLQIPGTGLNLVYHSSRAAGYLSTIKLQLTPDVIPTSLHLIHLRITIEGILFERIFEADPGIKFTYAWNRLNIYRQRVYGVTTAVVKVGYQYTDCTDIVWDIQTTKLSGHDMSISEVGGWNLDIHHRYNFHEGILQKGDGSNIYLRNKPRIILTTMGDGHQRPLECPDCDGQATKQRLLAPVALAAAPDGSLFVGDFNYIRRIMTDGSIRTVVKLNATRVSYRYHMALSPLDGTLYVSDPESHQIIRVRDTNDYSQPELNWEAVVGSGERCLPGDEAHCGDGALAKDAKLAYPKGIAISSDNILYFADGTNIRMVDRDGIVSTLIGNHMHKSHWKPIPCEGTLKLEEMHLRWPTELAVSPMDNTLHIIDDHMILRMTPDGRVRVISGRPLHCATASTAYDTDLATHATLVMPQSIAFGPLGELYVAESDSQRINRVRVIGTDGRIAPFAGAESKCNCLERGCDCFEAEHYLATSAKFNTIAALAVTPDSHVHIADQANYRIRSVMSSIPEASPSREYEIYAPDMQEIYIFNRFGQHVSTRNILTGETTYVFTYNVNTSNGKLSTVTDAAGNKVFLLRDYTSQVNSIENTKGQKCRLRMTRMKMLHELSTPDNYNVTYEYHGPTGLLRTKLDSTGRSYVYNYDEFGRLTSAVTPTGRVIELSFDLSVKGAQVKVSENAQKEMSLLIQGATVIVRNGAAESRTTVDMDGSTTSITPWGHNLQMEVAPYTILAEQSPLLGESYPVPAKQRTEIAGDLANRFEWRYFVRRQQPLQAGKQSKGPPRPVTEVGRKLRVNGDNVLTLEYDRETQSVVVMVDDKQELLNVTYDRTSRPISFRPQSGDYADVDLEYDRFGRLVSWKWGVLQEAYSFDRNGRLNEIKYGDGSTMVYAFKDMFGSLPLKVTTPRRSDYLLQYDDAGALQSLTTPRGHIHAFSLQTSLGFFKYQYYSPINRHPFEILYNDEGQILAKIHPHQSGKVAFVHDTAGRLETILAGLSSTHYTYQDTTSLVKSVEVQEPGFELRREFKYHAGILKDEKLRFGSKNSLASARYKYAYDGNARLSGIEMAIDDKELPTTRYKYSQNLGQLEVVQDLKITRNAFNRTVIQDSAKQFFAIVDYDQHGRVKSVLMNVKNIDVFRLELDYDLRNRIKSQKTTFGRSTAFDKINYNADGHVVEVLGTNNWKYLFDENGNTVGVVDQGEKFNLGYDIGDRVIKVGDVEFNNYDARGFVVKRGEQKYRYNNRGQLIHSFERERFQSWYYYDDRSRLVAWHDNKGNTTQYYYANPRTPHLVTHVHFPKISRTMKLFYDDRDMLIALEHEDQRYYVATDQNGSPLAFFDQNGSIVKEMKRTPFGRIIKDTKPEFFVPIDFHGGLIDPHTKLVYTEQRQYDPHVGQWMTPLWETLATEMSHPTDVFIYRYHNNDPINPNKPQNYMIDLDSWLQLFGYDLNNMQSSRYTKLAQYTPQASIKSNTLAPDFGVISGLECIVEKTSEKFSDFDFVPKPLLKMEPKMRNLLPRVSYRRGVFGEGVLLSRIGGRALVSVVDGSNSVVQDVVSSVFNNSYFLDLHFSIHDQDVFYFVKDNVLKLRDDNEELRRLGGMFNISTHEISDHGGSAAKELRLHGPDAVVIIKYGVDPEQERHRILKHAHKRAVERAWELEKQLVAAGFQGRGDWTEEEKEELVQHGDVDGWNGIDIHSIHKYPQLADDPGNVAFQRDAKRKRRKTGSSHRSASNRRQLKFGELSA
Mass photometry
  stoichiometry N: ~4
SEC
  stoichiometry N: 2
